Here are results for three molecules from patent US20210371492A1 (INNOVATIVE CELLULAR THERAPEUTICS, published 2021).

Assay [1] deals with T1, GCC-His fusion protein (recombinant extracellular region of GCC with His tag) (human, UniProt P25092 24-430).
T1 construct: also called GUC2C-His; recombinant GCC extracellular domain
Put plainly: BIAcore (SPR), GCC-His as mobile phase.

Assay [2] concerns the target T1, GCC-His fusion protein (recombinant …). Put plainly: ELISA, GUC2C-his coat 3ug/ml, antibody titrated, OD490. (In an ELISA, binding on a coated surface is turned into a signal by an enzyme label.)
Assay [3] has the same target. Put plainly: phage-ELISA, Fab phage library screened on GCC-His.

As usually defined, the Kd is the equilibrium constant for the complex coming apart. By EC50 (read off the curve) is commonly meant the concentration that produces a half-maximal response.

B1: R8C11VH/L4G6VK-mIgG2a (antibody, V domains shown)
VH: QVQLQQWGAGLLKPSETLSLTCAVFGGSFSGYYWSWIRQPPGKGLEWIGEINHRGNINDNPSLKSRVTISVDTSKNQFALKLSSVTAADTAVYYCARERGYSFGNYDHWGQGTLVTVSS
VL: EIVMTQSPATLSVSPGERATLSCRASQTVTRNLAWYQQKPGQAPRLLIYGASTRATGIPARFSGSGSGTEFTLTIGSLQSEDFAVYYCQQYKSWPRSFGQGTNVEIK
notes: Whole antibody with human variable regions and mouse constant regions (pMABG2a, pMABK); also called R8C11+L4G6
As to B1, in assay [1], the Kd stood at 11.8 nM. Also, the “EC50 (read off the curve)” value in assay [2] is about 2 nM.

B2: R8C11VH/L3B4VK-mIgG2a (antibody, V domains shown)
VH: QVQLQQWGAGLLKPSETLSLTCAVFGGSFSGYYWSWIRQPPGKGLEWIGEINHRGNINDNPSLKSRVTISVDTSKNQFALKLSSVTAADTAVYYCARERGYSFGNYDHWGQGTLVTVSS
VL: EIVMTQSPATLSVSPGERATLSCRASQTVTRNLAWYQQKPGQAPRLLIYGASTRATGIPARFSGSGSGTEFTLTIGSLQSEDFAVYYCQQYKSWPRTFGQGTNVEIK
notes: Whole antibody with human variable regions and mouse constant regions (pMABG2a, pMABK); also called R8C11+L3B4
With B2, in assay [1], the Kd is 11.2 nM.

B3: R7C8+L1E2 (Fab clone from the recombinant human phage antibody library) (Fab, V domains shown)
VH: QVQLQQWGAGLLKPSETLSLTCAVFGGSFSGYYWSWIRQPPGKGLEWIGEINHRGNINDNPSLKSRVTISVDTSKNQFALKLSSVTAADTAVYYCARERGYTYGNYEHWGQGTLVTVSS
VL: EIVMTQSPATLSVSPGERATLSCRASQTVNRNLAWYQQKPGQAPRLLIYGASTRATGIPARFSGSGSGTEFTLTIGSLQSEDFAVYYCQQYKTWPRTFGQGTNVEIK
B3: in assay [3], the binding result is “binds”.
